Assay results taken from patent US20080103095A1 (HEALTH RESEARCH, published 2008).

Target: T1, native hsp110 from murine tumor cells (Colon26 / colon 26, Meth A) and liver (mouse (murine colon 26 tumor), UniProt Q61699 2-858, limits assumed)
T1 construct: Native protein in cell extracts or chromatographic fractions; also called heat shock protein 110
Experiment: immunoblot of the purified native hsp110 fraction (ion exchange and size exclusion) from Colon26 cells

T1 sequence (Q61699 2-858 limits assumed): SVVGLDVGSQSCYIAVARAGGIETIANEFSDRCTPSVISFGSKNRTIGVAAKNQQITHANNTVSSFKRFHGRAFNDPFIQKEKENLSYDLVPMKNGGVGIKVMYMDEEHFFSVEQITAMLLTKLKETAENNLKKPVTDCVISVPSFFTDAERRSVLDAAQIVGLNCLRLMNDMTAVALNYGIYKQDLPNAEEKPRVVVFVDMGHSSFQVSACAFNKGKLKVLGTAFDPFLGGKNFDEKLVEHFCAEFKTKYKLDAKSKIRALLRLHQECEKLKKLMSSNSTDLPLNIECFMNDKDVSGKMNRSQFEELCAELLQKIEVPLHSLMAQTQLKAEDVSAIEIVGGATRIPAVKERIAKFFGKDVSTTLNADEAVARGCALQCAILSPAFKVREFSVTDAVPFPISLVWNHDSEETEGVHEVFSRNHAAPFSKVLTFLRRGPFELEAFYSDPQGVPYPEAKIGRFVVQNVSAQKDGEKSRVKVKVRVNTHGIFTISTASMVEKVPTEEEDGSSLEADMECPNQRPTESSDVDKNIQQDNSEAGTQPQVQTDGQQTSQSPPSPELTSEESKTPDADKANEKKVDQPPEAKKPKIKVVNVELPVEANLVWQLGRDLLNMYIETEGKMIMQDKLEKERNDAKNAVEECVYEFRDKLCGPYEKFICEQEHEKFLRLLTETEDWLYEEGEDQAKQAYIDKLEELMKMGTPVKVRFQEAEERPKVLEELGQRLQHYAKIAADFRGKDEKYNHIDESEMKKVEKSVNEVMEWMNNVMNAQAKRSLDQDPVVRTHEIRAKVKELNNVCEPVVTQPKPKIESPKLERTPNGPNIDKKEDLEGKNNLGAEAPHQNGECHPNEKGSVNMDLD

binding result: no binding
B1: T-complex polypeptide1 (TCP-1) in Colon26 cells (other)
chain: not shown
